{
  "source": "paper PMC10368991",
  "origin": "cited, not measured here",
  "biological_target": "LolB (Escherichia coli) (UniProt P61320)",
  "sequence (P61320 22-207)": "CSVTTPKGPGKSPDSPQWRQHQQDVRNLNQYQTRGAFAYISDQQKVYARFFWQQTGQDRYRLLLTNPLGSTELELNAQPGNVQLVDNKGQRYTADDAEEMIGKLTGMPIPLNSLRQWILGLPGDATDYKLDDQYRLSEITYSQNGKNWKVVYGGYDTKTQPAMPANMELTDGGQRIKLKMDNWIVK",
  "data": [
    {"substance": "LolA (from UniProt P61316)", "values": [
      {"measurement": "Kd", "result": 31.5, "unit": "µM"}
    ]}
  ]
}
